Experimental data published in patent publication US9068994.

Tests used:
Luteinizing Hormone (LH) [1] = biological target: Luteinizing Hormone (LH) (UniProt P01215); assay: LH-detecting i-STAT cartridge (LH capture, 414B detection), polystyrene LH 5304 scavenger beads added
[2] = biological target: Thyroid Stimulating Hormone (TSH) (UniProt P01215); assay: i-STAT sandwich cartridge with TSH; row Ab on capture beads; detection conjugate: ME130-ALP
[3] = biological target: Chorionic Gonadotropin (CG) (UniProt P01215); assay: i-STAT sandwich cartridge, 0.4 mIU/L TSH plus CG; row Ab capture; detection Ab: T25C
Luteinizing Hormone (LH) [4] = biological target: Luteinizing Hormone (LH) (UniProt P01215); assay: i-STAT sandwich cartridge, 0.4 mIU/L TSH plus LH; row Ab capture; detection Ab: ME130
[5] = biological target: Thyroid Stimulating Hormone (TSH) (UniProt P01215); assay: FRET competition, unlabelled Ab pre-bound to Alexa488 antigen; competitor: BHQ-labelled 414B
[6] = biological target: Thyroid Stimulating Hormone (TSH) (UniProt P01215); assay: i-STAT sandwich cartridge with TSH; row Ab on capture beads; detection conjugate: TSH Ab 544-ALP
[7] = biological target: Thyroid Stimulating Hormone (TSH) (UniProt P01215); assay: FRET competition, unlabelled Ab pre-bound to Alexa488 antigen; competitor: BHQ-labelled TSH Ab 544
[8] = biological target: Thyroid Stimulating Hormone (TSH) (UniProt P01215); assay: FRET competition, unlabelled Ab pre-bound to Alexa488 antigen; competitor: BHQ-labelled T25C
[9] = biological target: Thyroid Stimulating Hormone (TSH) (UniProt P01215); assay: FRET competition, unlabelled Ab pre-bound to Alexa488 antigen; competitor: BHQ-labelled M4
[10] = biological target: Follicle Stimulating Hormone (FSH) (UniProt P01215); assay: i-STAT sandwich cartridge, 0.4 mIU/L TSH plus FSH; row Ab capture; detection Ab: ME130
[11] = biological target: Follicle Stimulating Hormone (FSH) (UniProt P01215); assay: i-STAT sandwich cartridge, 0.4 mIU/L TSH plus FSH; row Ab capture; detection Ab: T25C
[12] = biological target: Chorionic Gonadotropin (CG) (UniProt P01215); assay: i-STAT sandwich cartridge, 0.4 mIU/L TSH plus CG; row Ab capture; detection Ab: ME130
[13] = biological target: Thyroid Stimulating Hormone (TSH) (UniProt P01215); assay: FRET competition, unlabelled Ab pre-bound to Alexa488 antigen; competitor: BHQ-labelled 5409
[14] = biological target: Chorionic Gonadotropin (CG) (UniProt P01215); assay: FRET quenching titration, BHQ-10 antibody with Alexa Fluor 488 antigen, in solution
[15] = biological target: Follicle Stimulating Hormone (FSH) (UniProt P01215); assay: as above
[16] = biological target: Thyroid Stimulating Hormone (TSH) (UniProt P01215); assay: as above
Luteinizing Hormone (LH) [17] = biological target: Luteinizing Hormone (LH) (UniProt P01215); assay: as above
[18] = biological target: Thyroid Stimulating Hormone (TSH) (UniProt P01215); assay: FRET competition, unlabelled Ab pre-bound to Alexa488 antigen; competitor: BHQ-labelled ME130
[19] = biological target: Thyroid Stimulating Hormone (TSH) (UniProt P01215); assay: i-STAT sandwich cartridge with TSH; row Ab on capture beads; detection conjugate: T25C-ALP
[20] = biological target: Thyroid Stimulating Hormone (TSH) (UniProt P01215); assay: i-STAT sandwich cartridge with TSH; row Ab on capture beads; detection conjugate: M4-ALP
Luteinizing Hormone (LH) [21] = biological target: Luteinizing Hormone (LH) (UniProt P01215); assay: i-STAT sandwich cartridge, 0.4 mIU/L TSH plus LH; row Ab capture; detection Ab: T25C
[22] = biological target: Follicle Stimulating Hormone (FSH) (UniProt P01215); assay: i-STAT sandwich cartridge, 0.4 mIU/L TSH plus FSH; row Ab capture; detection Ab: TSH Ab 544
Luteinizing Hormone (LH) [23] = biological target: Luteinizing Hormone (LH) (UniProt P01215); assay: i-STAT sandwich cartridge, 0.4 mIU/L TSH plus LH; row Ab capture; detection Ab: 5409
[24] = biological target: Chorionic Gonadotropin (CG) (UniProt P01215); assay: i-STAT sandwich cartridge, 0.4 mIU/L TSH plus CG; row Ab capture; detection Ab: TSH Ab 544
Luteinizing Hormone (LH) [25] = biological target: Luteinizing Hormone (LH) (UniProt P01215); assay: i-STAT sandwich cartridge, 0.4 mIU/L TSH plus LH; row Ab capture; detection Ab: TSH Ab 544
[26] = biological target: Thyroid Stimulating Hormone (TSH) (UniProt P01215); assay: i-STAT sandwich cartridge with TSH; row Ab on capture beads; detection conjugate: 5409-ALP
[27] = biological target: Chorionic Gonadotropin (CG) (UniProt P01215); assay: i-STAT sandwich cartridge, 0.4 mIU/L TSH plus CG; row Ab capture; detection Ab: 5409
[28] = biological target: Follicle Stimulating Hormone (FSH) (UniProt P01215); assay: i-STAT sandwich cartridge, 0.4 mIU/L TSH plus FSH; row Ab capture; detection Ab: 5409
[29] = biological target: Thyroid Stimulating Hormone (TSH) (UniProt P01215); assay: i-STAT sandwich cartridge with TSH; row Ab on capture beads; detection conjugate: 414B-ALP
Luteinizing Hormone (LH) [30] = biological target: Luteinizing Hormone (LH) (UniProt P01215); assay: i-STAT sandwich cartridge, 0.4 mIU/L TSH plus LH; row Ab capture; detection Ab: 414B
[31] = biological target: Chorionic Gonadotropin (CG) (UniProt P01215); assay: i-STAT sandwich cartridge, 0.4 mIU/L TSH plus CG; row Ab capture; detection Ab: 414B
[32] = biological target: Follicle Stimulating Hormone (FSH) (UniProt P01215); assay: i-STAT sandwich cartridge, 0.4 mIU/L TSH plus FSH; row Ab capture; detection Ab: 414B

Substance	electrochemical current (sandwich signal) [2] [nA]	relative fluorescence (relative (same pair = 1.0)) [5]	electrochemical current (sandwich signal) [6] [nA]	relative fluorescence (relative (same pair = 1.0)) [7]	relative fluorescence (relative (same pair = 1.0)) [8]	relative fluorescence (relative (same pair = 1.0)) [9]	relative fluorescence (relative (same pair = 1.0)) [13]	Kd [14] [nM]	Kd [15] [nM]	Kd [16] [nM]	Kd (Luteinizing Hormone (LH) [17]) [nM]	relative fluorescence (relative (same pair = 1.0)) [18]	electrochemical current (sandwich signal) [19] [nA]	electrochemical current (sandwich signal) [20] [nA]	LH CR (%) (cross reactivity) (Luteinizing Hormone (LH) [23])	electrochemical current (sandwich signal) [26] [nA]	CG CR (%) (cross reactivity) [27]	FSH CR (%) (cross reactivity) [28]	also measured
Biospacific LH 5304 monoclonal antibody (mus beta-LH, Catalog #5304 SP-5)	–	–	–	–	–	–	–	–	–	–	–	–	–	–	–	–	–	–	signal left after scavenger beads (% of signal without beads) (Luteinizing Hormone (LH) [1]): 4%
Biospacific Cat#5409 SPTNE-5 TSH mouse monoclonal antibody	53.6	0.88	1.41	0.93	0.78	0.9	1	500	1000	0.1	1000	0.78	34.6	15.2	–	–	–	–	CG CR (%) (cross reactivity) [3]: 0.96%; LH CR (%) (cross reactivity) (Luteinizing Hormone (LH) [4]): 10.1%; FSH CR (%) (cross reactivity) [10]: 2.43%; FSH CR (%) (cross reactivity) [11]: 0.65%; CG CR (%) (cross reactivity) [12]: 0.78%; LH CR (%) (cross reactivity) (Luteinizing Hormone (LH) [21]): 3.76%
Seradyn anti-alpha-LH monoclonal antibody Cat#MIT0414B, clone BB3.1.3	–	1	10.2	0.83	0.76	0.75	0.81	0.05	0.1	0.04	0.05	0.86	–	41.3	348	40.3	84.6	260	FSH CR (%) (cross reactivity) [22]: 219%; CG CR (%) (cross reactivity) [24]: 39.2%; LH CR (%) (cross reactivity) (Luteinizing Hormone (LH) [25]): 467%
Fitzgerald Cat#10-T25C TSH mouse monoclonal antibody, clone M94206	0.68	0.97	0.83	0.97	1	0.92	0.95	40	300	0.08	35	0.97	–	40.9	9.89	49.7	13.7	6.25	electrochemical current (sandwich signal) [29]: 0.82 nA
Fitzgerald 10C-CR2151M4 TSH mouse monoclonal antibody, clone 157155	39.9	0.9	0	0.98	0.74	1	0.94	554	210	0.18	300	0.76	22.5	–	–	20.7	–	–	–
TSH Ab 544 (Abbott Diagnostics Division) (antibody)	34.9	0.89	–	1	0.71	0.92	0.96	210	1000	1.31	1000	0.72	22.4	0.11	–	7.98	–	–	LH CR (%) (cross reactivity) (Luteinizing Hormone (LH) [30]): 11.8%; CG CR (%) (cross reactivity) [31]: 117%; electrochemical current (sandwich signal) [29]: 25 nA; FSH CR (%) (cross reactivity) [32]: 7.15%
AbCam ME-130 (ab9390) TSH mouse monoclonal antibody	–	0.99	10.8	0.82	0.88	0.77	0.82	45	70	0.04	54	1	0.1	50.5	11.1	54.7	11.8	3.9	–
